Measured values taken from patent US20080138837A1, “Methods and kits for detecting and measuring ADAMTS13/FXI complexes” (priority 2004, published 2008).
Values belong to the substance of their own block, whether it stands above or below them. Numbered stars: 1 amine (or outer) side, 2 acyl side, 3 side chain; on linkers, the order of the positions; unused ones are H or OH. * marks the point of attachment. AMC = Cc1cc(=O)oc2cc(N*)ccc12; Suc = O=C(CCC(=O)[*:2])[*:1]

Key:
ADAMTS13 = ADAMTS13 activity in PRP using peptidyl substrates; type: biochemical, human; conditions: 0.8 mM substrate, 37° C., FIG. 3
Method: Blood was collected by venopuncture into collection tubes containing 0.12 M sodium citrate, an anti-coagulant. The citrated blood was centrifuged at 700 rpm for 10 minutes. The supernatant was removed and saved as the platelet rich plasma (PRP) fraction. The PRP was centrifuged at 10,000 rpm for 20 minutes. The supernatant was removed and saved as the platelet poor plasma (PPP) fraction. The pellet contained the platelets, which were washed by resuspending in 10 mM Tris-HCl pH 8.0 buffer and centrifuging at 10,000 rpm for 10 minutes. The isolated platelets were resuspended in buffer and used in experiments.
As discussed above, Furlan et al. reported that some peptidyl-pNA moieties, such as XLY-pNA and XVY-pNA, were not substrates for ADAMTS13. We prepared LVY-pNA and tested it for its ability to be cleaved by ADAMTS13. The results shown in FIG. 2 confirm the findings of Furlan et al., i.e., LVY-pNA was not cleaved by ADAMTS13.
In order to determine the effect of modifying the length of the peptide sequence conjugated to the AMC fluorochrome, normal PRP (20 μl) was incubated at 37° C. with a final concentration of 0.8 mM Suc-LLVY-AMC or LVY-AMC in 10 mM Tris-HCl pH 8.0 buffer in total volume of 200 μl. Fluorescence was measured using a microtiter fluorophotometric plate reader (Ex 360 nm/Em 460 nm).

[1] = biological target: T1, recombinant ADAMTS13 (recADAMTS13) (Homo sapiens, UniProt Q76LX8); assay: Recombinant ADAMTS13 activity in tissue culture supernatants using fluorescent substrate; type: biochemical; conditions: 0.8 mM substrate, 50 mM Tris-HCl pH 8.0, FIG. 5
T1 construct: made in house; host or cells: HEK 293 cells; crude culture supernatant supplied by Dr. David Ginsburg, University of Michigan
T1 sequence (Q76LX8 75-1427): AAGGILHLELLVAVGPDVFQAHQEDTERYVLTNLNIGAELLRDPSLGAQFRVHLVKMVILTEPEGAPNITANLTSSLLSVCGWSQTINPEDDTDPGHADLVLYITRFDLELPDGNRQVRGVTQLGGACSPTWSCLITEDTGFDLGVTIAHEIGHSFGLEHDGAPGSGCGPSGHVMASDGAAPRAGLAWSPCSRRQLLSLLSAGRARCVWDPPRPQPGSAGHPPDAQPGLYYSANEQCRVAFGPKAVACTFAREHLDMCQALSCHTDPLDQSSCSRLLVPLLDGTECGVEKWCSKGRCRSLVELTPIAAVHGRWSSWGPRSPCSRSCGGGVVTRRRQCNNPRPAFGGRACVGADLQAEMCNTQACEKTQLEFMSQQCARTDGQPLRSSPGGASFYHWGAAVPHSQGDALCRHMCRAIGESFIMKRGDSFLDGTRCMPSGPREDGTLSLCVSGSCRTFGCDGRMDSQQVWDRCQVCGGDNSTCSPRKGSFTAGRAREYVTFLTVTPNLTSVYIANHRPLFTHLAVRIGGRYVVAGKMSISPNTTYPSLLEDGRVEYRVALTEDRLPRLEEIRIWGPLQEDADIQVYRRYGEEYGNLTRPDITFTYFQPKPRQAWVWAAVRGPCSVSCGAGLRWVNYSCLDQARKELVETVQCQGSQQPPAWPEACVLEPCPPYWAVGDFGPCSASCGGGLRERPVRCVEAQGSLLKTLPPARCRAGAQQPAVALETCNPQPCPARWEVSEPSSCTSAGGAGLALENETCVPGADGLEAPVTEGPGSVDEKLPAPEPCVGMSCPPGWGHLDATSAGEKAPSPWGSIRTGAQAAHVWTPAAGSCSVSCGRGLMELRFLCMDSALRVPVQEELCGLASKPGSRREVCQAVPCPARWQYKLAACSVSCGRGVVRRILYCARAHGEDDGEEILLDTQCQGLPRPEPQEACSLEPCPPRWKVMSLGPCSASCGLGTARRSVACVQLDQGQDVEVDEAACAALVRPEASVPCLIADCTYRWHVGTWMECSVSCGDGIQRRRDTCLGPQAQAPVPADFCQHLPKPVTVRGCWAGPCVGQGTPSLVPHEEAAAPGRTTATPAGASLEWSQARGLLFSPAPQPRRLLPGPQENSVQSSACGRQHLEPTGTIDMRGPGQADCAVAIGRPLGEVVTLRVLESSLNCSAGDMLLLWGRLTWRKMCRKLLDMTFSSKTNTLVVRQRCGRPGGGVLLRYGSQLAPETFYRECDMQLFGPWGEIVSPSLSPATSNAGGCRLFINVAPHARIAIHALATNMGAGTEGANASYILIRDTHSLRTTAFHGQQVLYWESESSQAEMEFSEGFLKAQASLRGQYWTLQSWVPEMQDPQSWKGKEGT
Description: HEK 293 cells were transfected with a vector encoding ADAMTS13. Cell culture supernatant from the transfected HEK 293 cells, containing recombinant ADAMTS13, was generously provided by Dr. David Ginsburg (University of Michigan, Mich.). Mock transfected cell supernatant with no recombinant ADAMTS13 was also provided as a control.
Fluorescence signals were compared between tissue culture supernatant from HEK 293 cells transfected with a viral vector coding for recombinant ADAMTS13 (“recADAMTS13”) and supernatant from mock transfected HEK 293 cells, as a control. (Culture supernatants were supplied by Dr. David Ginsburg, University of Michigan.) Varying amounts of the two culture supernatants were added to 0.8 mM Suc-Leu-Leu-Val-Tyr-AMC (SEQ ID NO: 2) fluorescent substrate in 50 mM Tris-HCl pH 8.0 in a total volume of 100 μl.

ADAMTS13/FXI complexes = biological target: T2, ADAMTS13/FXI complexes (Homo sapiens, UniProt P03951+Q76LX8); assay: Formation of ADAMTS13/FXI complexes in FXI-deficient plasma after addition of FXI (ELISA); type: binding; conditions: FXI-deficient plasma diluted 1:8 in ECD, 30 minutes, FIG. 25
T2 construct: addition of FXI (Enzyme Research Lab, Canada) to FXI-deficient plasma diluted 1:8 in ECD; purchased Enzyme Research Lab, Canada; host or cells: FXI purchased; ADAMTS13 endogenous in plasma from patients with congenital FXI deficiency
Method: An assay was developed for measuring the presence of ADAMTS13/FXI complexes by ELISA analysis. A standard curve was generated using PNP (Saturn Biomedical), diluted 1:4 in ECD buffer (PBS/3% BSA/gentamicin), and then serially diluted 1:2 in ECD buffer. Assays were performed in duplicate, using 100 μl of each standard dilution in Immulon 4 HBX 96-well microtiter plates (ThermoLabsystems, Franklin, Mass.) that were coated with goat anti-human ADAMTS13 antibody raised against a synthetic peptide sequence in the CUB1 domain (SC21510; Santa Cruz Biotechnology, Santa Cruz, Calif.) at a concentration of 1 μg/ml in 3-(N-morpholino)propanesulfonate (MOPS) coating buffer (0.1 M MOPS, 0.15 M NaCl, 0.05 M CaCl2, 0.066 M Trehalose, 0.02% NaN3, pH 7.4). Microtiter plates were blocked with SuperBlock (Pierce Chemical Co., Indianapolis, Ind.).
Standards and diluted samples were incubated in coated microwells for 2 hours at room temperature, with mixing. […] The optical density of the mixture was then read in a spectrophotometer at 450 nm.
Formation of ADAMTS13/FXI complexes was measured after addition of FXI (Enzyme Research Lab, Canada) to FXI-deficient plasma diluted 1:8 in ECD. […] The plasma containing newly formed ADAMTS13/FXI complexes were then added to anti-ADAMTS13 antibody-coated microwells and quantified, as described in Example 16.

human FXI = human FXI (Homo sapiens, UniProt P03951); assay: Binding of recombinant ADAMTS13 to FXI-coated plates (ELISA); conditions: FXI coated at 1 μg/ml, 1 hour, detection anti-ADAMTS13 TSP5-7 rabbit polyclonal, OD 450 nm, FIG. 22
Method: Binding of recADAMTS13 to immobilized FXI was measured using microplates coated with human FXI at a concentration of 1 μg/ml. RecADAMTS13 in solution was added to the FXI-coated microwells and incubated for 1 hour. ADAMTS13/FXI complexes were measured using ELISA. Specifically, after incubation with recADAMTS13, plates were washed with PBS +1% Tween, followed by incubation for 1 hour with anti-ADAMTS13 TSP5-7 rabbit polyclonal antibodies (1 μg/ml). Plates were washed again in PBS+1% Tween, followed by addition of a murine anti-rabbit IgG antibody conjugated to HRP. The detection antibody was incubated for an hour at room temperature. After washing the excess detection antibody from the plates, the TMB substrate was added, incubated for 10 minutes, after which 0.5 M sulfuric acid was added to terminate the reaction. The optical density of the mixture was measured at 450 nm on a spectrophotometer (FIG. 22).

Substance: Suc-Leu-Leu-Val-Tyr-AMC (Suc-LLVY-{AMC}; SMILES Cc1cc(=O)oc2cc(NC(=O)[C@H](Cc3ccc(O)cc3)NC(=O)[C@@H](NC(=O)[C@H](CC(C)C)NC(=O)[C@H](CC(C)C)NC(=O)CCC(=O)O)C(C)C)ccc12) [Suc-LLVY-AMC, fluorogenic peptidyl substrate from Bachem Bioscience Inc]
cleavage of peptidyl-AMC substrate by ADAMTS13 in PRP (ADAMTS13; normal PRP 20 μl, 10 mM Tris-HCl pH 8.0, Ex 360 nm/Em 460 nm): cleaved
fluorescence signal over time as compared to the LVY-AMC substrate (ADAMTS13; normal PRP): higher signal over time
cleavage of fluorescent substrate by recADAMTS13 in supernatant of transfected HEK 293 cells versus mock [1]: cleavage of the substrate by recADAMTS13

Substance: FXI: Factor XI zymogen (Enzyme Research Lab, Canada)
ADAMTS13/FXI complexes formed upon addition of FXI (ADAMTS13/FXI complexes): increasing amounts of ADAMTS13/FXI complexes were formed

complex formation with immobilized FXI (human FXI): stable complex
Substance: recADAMTS13: recombinant ADAMTS13 in culture supernatant of transfected HEK 293 cells
